{
  "source": "patent US11510965B2",
  "about": "“Vesicles comprising epidermal growth factor and compositions thereof” (Centro de Ingeniería Genética y Biotecnología, priority 2012, dated 2022)",
  "system": "acute lung injury induced by LPS-zymosan",
  "test": "Lethal model of acute lung injury (ALI) / ARDS in rats (LPS-zymosan)",
  "type": "in vivo, Sprague Dawley rats",
  "protocol": "Male Sprague Dawley rats with body weight between 250 and 280 grams were used. Lung injury was induced under general anesthesia (ketamine/xylazine) by intratracheal instillation of a combination of lipopolysaccharide (LPS)-zymosan. Immediately afterwards, the animals were randomly assigned to three experimental groups of 12 animals each.\nThe animals were allowed to evolve without any treatment until the onset of the first symptoms.\nTherefore, treatments were begun approximately 8 hours after the toxins were instilled. The experiment was aimed at evaluating the effect of treatment with both EGF formulations solely on the acute phase of ARDS. The treatments were performed by orofacial mask adapted from a volatile anesthesia machine. Treatments were performed twice daily. The animals were also treated once a day with hydrocortisone acetate (10 mg/kg) as coadjuvant treatment.\nAfter 72 hours of treatment onset, the study was stopped. Surviving animals were anesthetized and subjected to deep bronchoalveolar lavage in 5 ml of sterile saline for cytological and biochemical study, as well as arterial blood sampling for determination of blood gas parameters. Then the lungs were insufflated with 10 ml of 10% neutral formalin and processed for histology.",
  "key": {"[1]": {"conditions": "arterial blood, survivors at 72 hours"}, "[2]": {"conditions": "bronchoalveolar lavage, survivors at 72 hours"}},
  "data": [
    {"molecule": "EGF in physiological saline: spray of EGF (Epidermal Growth Factor) in physiological saline at 25 μg/ml/kg (protein, UniProt P01133 23-1207, looked up, Pro-epidermal growth factor, spray of EGF (Epidermal Growth Factor) in physiological saline at 25 μg/ml/kg) Pro-epidermal growth factor: PQHWSCPEGTLAGNGNSTCVGPAPFLIFSHGNSIFRIDTEGTNYEQLVVDAGVSVIMDFHYNEKRIYWVDLERQLLQRVFLNGSRQERVCNIEKNVSGMAINWINEEVIWSNQQEGIITVTDMKGNNSHILLSALKYPANVAVDPVERFIFWSSEVAGSLYRADLDGVGVKALLETSEKITAVSLDVLDKRLFWIQYNREGSNSLICSCDYDGGSVHISKHPTQHNLFAMSLFGDRIFYSTWKMKTIWIANKHTGKDMVRINLHSSFVPLGELKVVHPLAQPKAEDDTWEPEQKLCKLRKGNCSSTVCGQDLQSHLCMCAEGYALSRDRKYCEDVNECAFWNHGCTLGCKNTPGSYYCTCPVGFVLLPDGKRCHQLVSCPRNVSECSHDCVLTSEGPLCFCPEGSVLERDGKTCSGCSSPDNGGCSQLCVPLSPVSWECDCFPGYDLQLDEKSCAASGPQPFLLFANSQDIRHMHFDGTDYGTLLSQQMGMVYALDHDPVENKIYFAHTALKWIERANMDGSQRERLIEEGVDVPEGLAVDWIGRRFYWTDRGKSLIGRSDLNGKRSKIITKENISQPRGIAVHPMAKRLFWTDTGINPRIESSSLQGLGRLVIASSDLIWPSGITIDFLTDKLYWCDAKQSVIEMANLDGSKRRRLTQNDVGHPFAVAVFEDYVWFSDWAMPSVMRVNKRTGKDRVRLQGSMLKPSSLVVVHPLAKPGADPCLYQNGGCEHICKKRLGTAWCSCREGFMKASDGKTCLALDGHQLLAGGEVDLKNQVTPLDILSKTRVSEDNITESQHMLVAEIMVSDQDDCAPVGCSMYARCISEGEDATCQCLKGFAGDGKLCSDIDECEMGVPVCPPASSKCINTEGGYVCRCSEGYQGDGIHCLDIDECQLGEHSCGENASCTNTEGGYTCMCAGRLSEPGLICPDSTPPPHLREDDHHYSVRNSDSECPLSHDGYCLHDGVCMYIEALDKYACNCVVGYIGERCQYRDLKWWELRHAGHGQQQKVIVVAVCVVVLVMLLLLSLWGAHYYRTQKLLSKNPKNPYEESSRDVRSRRPADTEDGMSSCPQPWFVVIKEHQDLKNGGQPVAGEDGQAADGSMQPTSWRQEPQLCGMGTEQGCWIPVSSDKGSCPQVMERSFHMPSYGTQTLEGGVEKPHSLLSANPLWQQRALDPPHQMELTQ", "values": [
      {"measurement": "Death total", "setting": "12 animals per group, 72 hours", "value": 5},
      {"measurement": "Death total (percent)", "setting": "12 animals per group, 72 hours", "value": "(41.6%)"},
      {"measurement": "Mortality (deaths) 48 hours", "setting": "12 animals per group, EGF 25 μg/ml, orofacial mask twice daily", "value": 5},
      {"measurement": "Arterial pH", "setting": "[1]", "value": "7.12 ± 0.1"},
      {"measurement": "Arterial saturation", "setting": "[1]", "value": "76 ± 8.3"},
      {"measurement": "Inflammatory cells per ml", "setting": "[2]", "value": "2.2 × 10^3"},
      {"measurement": "Red blood cells per ml", "setting": "[2]", "value": "5.0 × 10^2"},
      {"measurement": "Total phospholipids per g of lung tissue", "setting": "[2]", "value": 0.000241, "unit": "g"}
    ]}
  ]
}
